Literature values in patent US20050118241A1, “Platform for transdermal formulations (ptf)” (priority 2002, published 2005).

Conditions: extensively degraded in liver, kidney and plasma

Question: For glucagon, which half-life is on record?
Answer: 3 to 6 min
